Earlier results on one substance are cited in article PMC8874714.

One may read the Kd as the constant that tells how readily two partners part at equilibrium.

In the data set the target is CYP102A1 (Priestia megaterium) (UniProt P14779).

On to CYP102A1 (from UniProt P14779), for which the Kd was 1.1 nM.
